Earlier results on 1 substance are cited in article PMC11901361.

This data set concerns the target folate receptor alpha (Homo sapiens) (UniProt P15328).

folate receptor alpha (Homo sapiens), sequence (P15328 25-234): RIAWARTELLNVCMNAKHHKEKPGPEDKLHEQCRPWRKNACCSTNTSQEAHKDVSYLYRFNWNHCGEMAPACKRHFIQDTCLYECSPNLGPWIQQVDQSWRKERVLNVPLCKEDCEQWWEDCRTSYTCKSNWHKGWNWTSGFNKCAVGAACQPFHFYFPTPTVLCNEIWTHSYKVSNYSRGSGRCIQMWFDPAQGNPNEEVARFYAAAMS

Consider farletuzumab, for which the dissociation constant (Kd) was 2000 nM.

In general, Kd refers to the equilibrium constant for the complex coming apart.
